# Measured values taken from a protein production outcome set (Wang et al. 2014).
# Experiment: label from the status in PepcDB records
row,Sequence,protein production
1,MKKTLLAIVAVSALSACRQAEEGPPPLPRQISDRSVGHYCSMNLTEHNGPKAQIFLNGKPDQPVWFSTIKQMFGYTKLPEEPKGIRVIYVTDMGNVTDWTNPNADTEWMDAKKAFYVIDSGFIGGMGAEDALPFGNKEQAEKFAKDKGGKVVGFDDMPDTYIFK,failed
2,MGSQGGIVSIDAKIDASVMIGKDAVVFPDANIAERACIAEKVCIGNAVRIGKHAMIDHGASIGDRSNIGERSRIYQDSFIGENAVIAARACIGEKVYIGNFVSLAKDSIIDDGVNIGERSSIGERTRIRQGSFIRKGCVIRQRSVIAKRAYIDEGVYIGNVVRILEHHHHHH,failed
3,MSVSGQPVLRAAVVTLQGRREDNQDFAAIAEPSPRDAAARGFVAAVADGIGGARGGRVAAEVSVRSFMEAYYGLSETLGMQQLLDRCLGSANRWVHAMGRLDPELAHMGTTFSGLIFRGRRAYLVHVGDSRIYRLRGDEPELLTSDHTLSGPGLDHVLYRAVGLDPGLRIDYSVYPLEPHDRFLLCSDGLHGSLQQEQIREILQERATPETTAEALARLAFEQGSQDNITALVVDVIALPPAEKQSLRLAIESLPLLDLPEVGDEVDGFRLERLLSSGRYSALFLAADTLGQDKPVVVKFPHPRVASEREYYDAFVREAWIGARVKSPWVGEILEQTPGRQSRLYSVMPFYPGASLEHELARRPRIGLEAGIDLALKLCKAVHALHRQQIVHRDIKPDNVLLDPEGGLKLLDLGIARLPAWDEDQADPIPGTPSYMAPEMFQGERGSIATDVFALGVTLYRTFAGGAYPYGEVEPFSTPRFGSPRPLTAHRPDLPAWLDAVLARAIAADPAQRPADAVELAYELEAGLEKGGGRRPPRRPLPLYERNPLQFWKAVAALLLALLAMAGLRLSLSCRPPSEAASRNNPLIHDNGDSR,failed
4,MFIKLMRNIFSELTSHIQNMKLYFKRSLLVFSLMSSFCVASERSAWEEVYAKSQHKQTETALKLLQDRYHSLPEGAEKLYLTSKLHGYFVLKGQPYYGELVNSHDTYALTEQRFLDALNHEESLDYHSAEETYLTFYAEMKQKNDQDGMVLFEYHLCRLFQRHGRPYQARFYCSQMDQRLLNAEDPLFPRYRGLHLVANNLEFLGEYEEALQTYDLLLSLLPDYVDPSGIYNDVGLLMGTLGQYESALDYLNKALEYRLEQGNPLLIAQVEHSLGDTYFKQGRYEESILYFEQAKAHLTPANYLFGLAYVHLGLGKAYIELNNFVEGDQHLFQALEYVNQHKDQHLQGLIYLSLAQAHFKEQKYAQAIDYANQAVAISESASLPRIKAQAYLQLAKIAEAEQQYQEALSWYRQYAESELLLRNTEQRKAFEALDLAKAELEQKRGVNFWRENYQALAEKYEMLKWQRVSLSLLVIVFALILPIAHYRRRKECDQNQQDSLHGVLSRTSGLERLTHIEACQQTEHVHLLALLDIDQLRQFNERHGYERGDIALQNTINTLLHQLRAKEFVCRLGDDEFLVVMPNCRRTLSETRLFVLHHALNGKTPTDAKSTVGLSVTLSYLAVESGLASFTHFYPKLDSALSIAKQSGNGGLIDAADPTNALLTACS,failed
5,MATQLVKGNTAVIIGAMYAGCDCYFGYPITPASEILHEASKYFPMVGRKFVQAESEEAAINMVYGAASTGKRVLCATSGPGMSLKQEGISFLAGSELPCVLVNVQRAGPGLGNIGPEQADYNQAVKGGGHGNYKNIVLAPNSVQEMCDCTAKAFELATKYKNPVIVLSDGVLGQMVEPLKFPEQAIKPEIDESWAVRGTKETRKNLVTSIFLDFKQLEEFNYALQEKYEIIKENEQDFEGYQLDDAEIILVSYGISSRISKTAVDVARKEGIKAGLFRPKTLFPFPEKELNKLAEKKCTFISVEMSNGQMAEDIKLATCCKRPIELVNRLGGNLIEVDQILAKIKEIAGGN,failed
6,MESMSMNHRVVRHCHNKKLQQSRYSPYSKENIISTIEKEMQKDEAIRLGVELSLFVAETMVLLSDNLRSMLLFCLWVLTNAECTYFTDPVVGRLHCVMLYVLETYIKPKNGVYLADVKSNQWEVFVKSCKSFVFGIRELDRIVLILGKRESSSCEVVKTSDFEHCNQELKKLEETLRSAKDVSEANGFAREVIKSNILCLWKSLFETSQPKVINLKNRTLDMFKPLLNQAREITCSSLIASLHI,failed
7,MAGVCGSKLMMARLVGMPDLFSDSGWGSGELPRALRPGLVHLPRWMGLDQQFAVVQQCREIARSVAGTPLAMHRQQWASGTMSAYLMSLGLHWEYRTYQYVSQWGGVAVPPIPVEFSALAHEVLRAAAGVDDSLAAWVDSYRIDAALVNYYPPGAGMGMHQDAFEDSRAPVVSLSIGDSAVFRAGNGVNRQRPWQDVVLGSGDAVVFGGPSRDMFHSVVRLHAGTAPTRCGVSQGRINLTFRQVKL,failed
8,MKVPEAAISRLITYLRILEELEAQGVHRTSSEQLGELAQVTAFQVRKDLSYFGSYGTRGVGYTVPVLKRELRHILGLNRKWGLCIVGMGRLGSALADYPGFGESFELRGFFDVDPEKVGRPVRGGVIEHVDLLPQRVPGRIEIALLTVPREAAQKAADLLVAAGIKGILNFAPVVLEVPKEVAVENVDFLAGLTRLSFAILNPKWREEMMG,not failed
9,MNIDAVVEFTKKHLKDEKTGHDFYHGQRVANLASKMYLEDHPDAHADSRMVAIIKSGGYLHDTIDEKVCDNPDKVIAEIKELLPEVGFTDLEVWDILFTIQHMSFSANIEHHYHLPLSGQYVQDADRLESLGAMGIARAFTYGGKHGNKIYDPEIKPEKLVSHDQYRNHVETTINHFYEKLFHLADTMNTPAMKKEANRRTEYMHNFVQEFMNEWNVLEHHHHHH,not failed
10,MVCDKCEKKLSKVIVPDKWKDGARNVTEGGGRKINENKLLSKKNRWSPYSTCTTKCMICKQQVHQDGKYCHTCAYSKGVCAMCGKQVLDTKMYKQSNV,failed
11,MGHHHHHHSHMTHSDKPYKCDRCQASFRYKGNLASHKTVHTGEKPYRCNICGAQFNRPANLKTHTRIHSGEKPY,not failed
12,MSTDSIVKASNWRLVEVGRVVLIKKGQSAGKLAAIVEIIDQKKVLIDGPKAGVPRQAINLGQVVLTPLTFALPRGARTATVSKKWAAAAVCEKWAASSWAKKIAQRERRAALTDFERFQVMVLRKQKRYTVKKALAKA,failed
13,MYEHQTYEAILVRMLARVPETIDKREGSLIYDALAPGAAELAQAYAELVVNNNLSFADTASGEFLTRRAAEFGIKRKVATKAWRRGGFLDSNNALLNIPLGSRYSIGGLNYTAIEQISTGAYVLECETAGTAGNQQFGDLLPIAYVNSLARAELTEVLVPGEDEETDEALLSRYYETVNEPAFGGNMADYRQKVNAINGVGGTKVFPTWAGGGTVKCTIIASDWAKPSPELVNEVQSTMDPEENQGMGLGQAPIGHAVTIAGVDKVTVDVETTLTLAPGVTPGQVQSDVEAILDAYLLEQRKTWAAQTQIIIRMAQIDARMLTVQGVEDVTGTKLNGTEANFLLDEEEIPILGTVIINELEHHHHHH,failed
14,MIKKFKNYDQIIKELFVIAIPTAFESLLFQMVTFFDNFMISYLGSFHVTGVSLANRVTFLFFIIVFGLGTALSAYVSQAIAKKKFLQVRQSFAYILLIGTTIGIIFFIFSFLFPRNIIKLFTANQDSLNFGSEYLKIISLSYVLMAYSFLSAMGFKSAKEVKIPLYVTSIVVLINIVFNYILIFGFSMGIKGAAYATVLARIVEFVFYFLYSLISSNSYYRIKFGDFFAPKVVTRANLKLIIPVLSHEIFWVLSITILHAFYARVGSIEYASFAVASNLFDICFVLLHGMGLATGVVIGHLMIYDKKHVRSVGFFLSFLGFLLGIFVVILLIGISSFAPYIFSKLDSPELVSVFIYVFASIVIFKAFTAQVLVGVFRASGIPNVCFFIESGVIVFYTLPVAYLLVFYTNLSLPIVVFIVNLEEIIKNIFIIIEFFHDDWIREIEYEELA,failed
15,MSQMMQMYQQVGPAQFSAMIGQFAPYFASIAPQFVELRPGYAEVTFPKRREVLNHIGTVHAIALCNAAELAAGTMTDASIPAGHRWIPRGMTVEYLAKATGDVRAVADGSQIDWQATGNLVVPVVAYVDDKPVFRAEITMYVSQA,not failed
16,MRKRARIIYNPTSGKELFKRELPDALIKLEKAGYETSAYATEKIGDATLEAERAMHENYDVLIAAGGDGTLNEVVNGIAEKPNRPKLGVIPMGTVNDFGRALHIPNDIMGALDVIIEGHSTKVDIGKMNNRY,failed
17,MTISNFVNYIRSPPVNGFVCCTRGSSIAVCNPTTRQIVKLPDVVTNENYMHVRLGYDPVEDQYKVLLVVMMFDGYRTDTDQEYFVFTLSSQQKEWRKIENTTGETYHMVYGGICIDGAIYYGVSQSIIVKFDVRSEKMEFIQAHEVSHIAPPYYSTLLYLSSDMIRMENHSNEEVRFWILEDAEKLRVSHMACDVWDDSLGKYVRAKEEIHTGKLMGIYPRLQSSKYKPFSVCVYHFNKVGLKKTEIQGSNDDDIRFRCGIGMRTHEILILEVTLRILGSCEEFSWFH,not failed
18,MYAAVEHGPVLCSDSNILCLSWKGRVPKSEKEKPVCRRRYYEEGWLATGNGRGVVGVTFTSSHCRRDRSTPQRINFNLRGHNSEVVLVRWNEPYQKLATCDADGGIFVWIQYEGRWSVELVNDRGAQVSDFTWSHDGTQALISYRDGFVLVGSVSGQRHWSSEINLESQITCGIWTPDDQQVLFGTADGQVIVMDCHGRMLAHVLLHESDGILSMSWNYPIFLVEDSSESDTDSDDYSPPQDGPAAYPIPVQNTKPLLTVSFTSGDISLMNNYDDLSPTVIRSGLKEVVAQWCTQGDLLAVAGMEQQAQLSELPNGPLLKSAMVKFYNVRGEHIFTLDTLVQRPIISICWGHRDSRLLMASGPALYVVRVEHRVSSLQLLCQQAIASTLREDKDVNKLTLPPRLCSYLSTAFIPTIKPPIPDPNNMRDFVSYPSAGNERLHCTMKRTEDDPEVGGPCYTLYLEYLGGLVPILKGRRISKLRPEFVIMDPRTDSKSDEIYGNSLISTVIDSCNCSDSSDIELSDDWAAKKSPKISRSSKSPKLPRISIEARKSPKLPRAAQEISRSPRLPMRKPSMGSPSLTRREFPFEDITQVGSYN,failed
19,AQTRLLIQNRLVAQRDEFDNVFHSIRDGVITYDTDFRIHFTNRSLLKMLHLPKDEAARPYEGLPAGSIFKIYNNGKEILRPMLKQVVTEESSVVIPENSFMQEVHSGSYFPVSGEVVPIRAHGKITGMALSARNIS,failed
20,DQEVRLENRITFQLELVGLERVVRISAKPTKRLQEALQPILAKHGLSLDQVVLHRPGEKQPMDLENPVSSVASQTLVLDTPPDAKMSEARS,not failed
21,EDVEFVRLNVSDLLTDPELAQSIFSLLVSAHYQTSPNDWLALLSDPSLFCWAGIDKSSRNVLTCALVSLEGQLDNELIADIQVGKRRPRGHLVPVSLTQTLCINEPAQQSCIRIMRIAVEQHYQRMHLGSKFIEYIKAFYCDLGIDYLSTSFGSTPGLNEFWLSLDF,failed
22,IKVGKAKLLNQVLVNLPTSISQQTIAETDGDSAGSDSFPVGRTHHRWYLCHFGQSLIHVIQVVIGYFIMLAVMSYNTWIFLGVVLGSAVGYYLAYPLLSTA,not failed
23,MKFLDNIKKNQSLMRFIETTQSHMVTAEIGNSSVVVAYYLLLSLFPLLIAVGNVLPYLRIDPNSVLPYIAEAIPKDVYKNLEPAIRSLLTQRSGGLLSVSALAAFWSASQSINALQNAMNKAFGVEQRKNFILVRVVSFLVILLFMVAIVGVVVILGLGQYIIELLQPIFHYSTSVIDTFQALKWPLTTVVLLVIMCLIYAVVPNRKLSLRSILPGAIFSTVGWMLLSQIFGLYVKYFSSRIASYQIIGSFIILMLWLNFAATIIILGAIVNAVVDEYLSGDKEKKQPSFEQRLFRWFKKKK,failed
24,MEKTLETVPLERKKREKEQFRKLFIGGLSFETTEESLRNYYEQWGKLTDCVVMRDPASKRSRGFGFVTFSSMAEVDAAMAARPHSIDGRVVEPKRAVAREESG,not failed
25,MKTKLMTLQDATGFFRDGMTIMVGGFMGIGTPSRLVEALLESGVRDLTLIANDTAFVDTGIGPLIVNGRVRKVIASHIGTNPETGRRMISGEMDVVLVPQGTLIEQIRCGGAGLGGFLTPTGVGTVVEEGKQTLTLDGKTWLLERPLRADLALIRAHRCDTLGNLTYQLSARNFNPLIALAADITLVEPDELVETGELQPDHIVTPGAVIDHIIVSQESK,not failed
